In one series the target is T1, human CIB2 (Homo sapiens, UniProt O75838).
T1 construct: made in house
T1 sequence (O75838 1-187): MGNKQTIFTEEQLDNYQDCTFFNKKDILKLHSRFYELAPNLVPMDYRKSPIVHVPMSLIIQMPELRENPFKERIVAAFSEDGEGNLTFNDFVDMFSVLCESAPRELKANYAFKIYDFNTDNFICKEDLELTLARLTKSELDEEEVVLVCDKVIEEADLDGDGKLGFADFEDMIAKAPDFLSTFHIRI
Put plainly: Cross-linking (DSBU)/MALDI-TOF-MS of CIB2 with α7B peptides. The class given is binding. On the procedure:
CIB2 samples were cross-linked with DSBU in the presence of peptide α7B_M or α7B_Scrb as described in ref.[14] Briefly, 10 µM CIB2 was diluted in 20 mM HEPES, pH 7.5, 1 mM DTT, 1 mM Mg^2+ and 2 mM Ca^2+ and incubated with increasing peptide concentrations (5 µM, 10 µM, and 20 µM) for 10 min at room temperature. Then, 50-fold molar excess of DSBU was added and the reactions were conducted for 20 min at room temperature. As control, CIB2 was treated with DSBU without peptide. Reactions were blocked by adding ammonium bicarbonate to a final concentration of 20 mM.
Cross-linked CIB2 samples were desalted via ZipTip C4 tips (Millipore) before MALDI-TOF-MS analysis (Ultraflex III MALDI-TOF/TOF mass spectrometer, Bruker Daltonik, Bremen) was conducted using sinapinic acid as matrix. For further details see Supplementary Methods. Baseline subtraction and spectra smoothing were performed. […]
Cross-linking reactions and Mass Spectrometry
Cross-linking reactions were performed with 10 µM CIB2 (in 20 mM HEPES pH 7.5, 150 mM KCl, 1 mM DTT, 1 mM Mg2+, 2 mM Ca2+) and increasing concentrations of peptides α7B_M and α7B_Scrb, ranging from 0.5:1 to 2:1 peptide:protein ratios. After incubating the samples for 10 minutes at room temperature, DSBU (freshly prepared solution, dissolved in neat DMSO) was added to the mixture at 50-fold molar excess compared to CIB2 concentration. As the final volume of the reaction mixture was 50 µL, 1 µL of 25 mM DSBU was added to each sample. After 20 minutes, the cross-linking reactions were quenched by adding ammonium bicarbonate to a final concentration of 20 mM. Samples were incubated for 10 minutes before SDS-PAGE analysis was performed (data not shown). Samples for MALDI-TOF-MS measurements were desalted by ZipTip C4 (Millipore) and desalted protein was eluted with 70% (v/v) acetonitrile / 1% (v/v) formic acid. Each sample was mixed with a saturated solution of sinapinic acid (in 50% (v/v) methanol / 0.1% (v/v) TFA) at 1:1 ratio and spotted onto the MALDI target. […]

Series [1] has as its system CIB2. As to conditions: cited from earlier work. The source says: In a recent study[8] we investigated the capability of CIB2 to bind Ca^2+ and Mg^2+ thereby switching to a functionally distinct structural state. By integrating several biochemical and biophysical techniques we could establish that in the absence of any cation CIB2 forms a molten globule state that essentially lacks tertiary structure. […] This is quite unusual for Ca^2+-sensor pro ... || The second approach (direct peptide immobilization) led to very low signals and unreproducible results and was not pursued any further. […] In spite of such differences, which might ... || Interaction with α7B occurs in the region proximal to the membrane and not close to the C-terminus of the cytosolic domain of the integrin. The recognition between CIB2 and the α7B target is kinetically favored in the presence of physiological Mg^2+ and in the absence of Ca^2+ and it might induce binding of another CIB2 molecule. […] However, CIB2 per se binds a single peptide as a monomer, and the complex could then induce CIB2 dimerization, ...

The next series relates to Trypsin. Put plainly: Limited proteolysis of CIB2 with trypsin. As to conditions: 30 min, 25 °C, 25 µM CIB2, trypsin 1:100, SDS-PAGE. On the procedure:
Figure 5 CIB2 limited proteolysis. (A) 10 µM CIB2 was incubated at 25 °C in the presence of 1 mM EDTA (Apo), 500 µM EGTA + 1 mM Mg^2+ (Mg^2+) and 1 mM Mg^2+ + 2 mM Ca^2+ for 10 minutes at 25 °C. Samples were boiled and loaded in a 18% SDS polyacrylamide gel. (B) Limited proteolysis was performed incubating trypsin with 25 µM CIB2 in the same concentrations of ions used for (A) (protein:enzyme ratio was 100:1). Samples were collected at different times, boiled and loaded on a 18% SDS-PAGE. Both gels run for 45–50 min, then they were Coomassie Blue-stained. The figure results from two separate gels, which have been reported in full length in Fig. S6.
Limited proteolysis experiments were performed incubating 25 µM CIB2 in the presence of Trypsin (Sigma) in a ratio 1:100 enzyme:CIB2 at 25 °C. Three conditions were tested: 1 mM EDTA, 500 µM EGTA + 1 mM Mg^2+ and 1 mM Mg^2+ + 2 mM Ca^2+. Time-resolved proteolysis patterns are reported in Supplementary Materials (Fig. S2), results shown in Fig. 5 refer to reactions stopped after 5 min and 30 min. Proteolysis products were loaded on a 15% or 18% SDS gel, as indicated.
His-tagged proteins, and then blocked via amine coupling as explained above. Preparation of the […]
approximately 2250 RU of CIB2 immobilized. […]

The test system of series [2] is CIB2. As to conditions: fused with GFP and tdTomato; cited from earlier work. The text has this:
Our previous work with untagged purified CIB2 also concluded that CIB2 is dimeric. We now provide new lines of evidence that allow us to reconsider some of the previous findings in the light of MS ...

Where a SMILES comes first, the peptide text is derived from it.

With `CSCC[C@H](NC(=O)[C@H](CCCCN)NC(=O)[C@H](Cc1c[nH]c2ccccc12)NC(=O)[C@H](CC(C)C)NC(=O)[C@H](CC(C)C)NC(=O)[C@H](CC(C)C)NC(C)=O)C(=O)NCC(=O)N[C@@H](Cc1ccccc1)C(=O)N[C@@H](Cc1ccccc1)C(=O)N[C@@H](CCCCN)C(=O)N[C@@H](CCCNC(=N)N)C(=O)N[C@@H](C)C(=O)N[C@@H](CCCCN)C(=O)N[C@@H](Cc1c[nH]cn1)C(=O)N1CCC[C@H]1C(=O)N[C@@H](CCC(=O)O)C(N)=O` [α7B_M] (Ac-LLLWKMGFFKRAKHPE-NH2), the “1:2 CIB2/peptide complex” value on human CIB2 (10 µM CIB2, 5, 10, 20 µM peptide, 50-fold DSBU, 1 mM Mg^2+, 2 mM Ca^2+) is on record as “A weak signal”. For the same molecule, the “CIB2/peptide complex formation, 1:1” value at human CIB2 (10 µM CIB2, 5, 10, 20 µM peptide, 50-fold DSBU, 20 mM HEPES pH 7.5, 1 mM Mg^2+, 2 mM Ca^2+, room temperature) is recorded as “a 1:1 CIB2/peptide complex appears in the mass spectra”. The “2:1 CIB2 and peptide complex” value on human CIB2 (cross-linking experiments with DSBU, 1 mM Mg^2+, 2 mM Ca^2+) is listed as “never observed”. Also, the “fluorescence titration of CIB2” value in the series on CIB2 [1] (peptide intrinsic fluorescence) is given as “fluorescence variation upon titration with α7B_M was much higher”.

B1: CIB2: Recombinant human CIB2, Ca^2+ and Mg^2+-binding protein (protein)
chain: MGNKQTIFTEEQLDNYQDCTFFNKKDILKLHSRFYELAPNLVPMDYRKSPIVHVPMSLIIQMPELRENPFKERIVAAFSEDGEGNLTFNDFVDMFSVLCESAPRELKANYAFKIYDFNTDNFICKEDLELTLARLTKSELDEEEVVLVCDKVIEEADLDGDGKLGFADFEDMIAKAPDFLSTFHIRI
modifications: left off: His tag, end not stated, cleaved
For B1, the “oligomeric state by MS and XL-MS” value in the series with human CIB2 (all tested conditions, MS and XL-MS) is “remained monomeric in all tested conditions”. For the same molecule, the “native band after trypsin” value with Trypsin (1 mM EDTA (apo)) is “completely lost”; in the series on Trypsin (1 mM Mg^2+ or 1 mM Mg^2+ + 2 mM Ca^2+) it was “permitted the detection of the native CIB2 band even after 30 min”. For the same molecule, the “CIB2:target peptide stoichiometry” value in the series on CIB2 [1] (fluorescence) was 2:1 stoichiometry. Besides, the dimer formation result with CIB2 [2] is recorded as “found to form dimers”.

The values are drawn from publication PMC6803640, “Oligomeric state, hydrodynamic properties and target recognition of human Calcium and Integrin Binding protein 2 (CIB2)” (Scientific Reports, 2019).
